The results in this text go back to US20090181034A1 (AGENSYS, published 2009).

T1: murine PSCA (mouse, UniProt P57096 21-95)
T1 construct: whole, on cells; also called mouse PSCA; Mouse-PSCA
T1 sequence (looked up): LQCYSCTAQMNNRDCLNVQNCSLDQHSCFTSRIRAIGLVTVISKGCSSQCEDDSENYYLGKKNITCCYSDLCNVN

B1: Ha1-1.16 (antibody, IgG1, V domains shown)
VH: QVQLQQSGPGLVKPSQTLSLTCAISGDSVSSNSAAWNWIRQSPSRGLEWLGRTYYRSKWYNGYAVSVKSRMTINPDTSKNQFSLQLNSVTPEDTAVYYCARERLGELYGMDVWGQGTTVTVSS
VL: QLTQSPDSLAVSLGERATINCKSSQNILYRSSKKNHLVWYQQKPGQPPKLLIYWASTRESGVPARFSGSGSGTDFTLTISTLQAEDVAVYYCQQYYSTPPTFGQGTRLEIKR
notes: Fully human MAb from human gamma 1 producing XenoMouse immunized with PSCA-GST (IgG1, kappa), hybridoma ATCC PTA-6698; Ha1-1.16.1 (subclone label) is treated as the same antibody; also called Ha1-1.16.1
B2: Ha1-5.99 (antibody, IgG2, V domains shown)
VH: QVHLQQWGAGLLKPSETLSLTCAVYGGSFSGYYWSWIRQPPGKGLEWIGEINHSGSTSYKPSLKSRVTVSVDTSKNQFSLKLSYVTAADTAVYYCARDRGDYGDFLFDYWGQGTLVTVSS
VL: SPGERATLSCRASQSIGSTYLAWYQQKPGQAPRLLIYGASSRATGIPERFSGSGSGTDFTLTISGLEPEDFAVFYCQQCGSSPPTFGQGTKVEIKR
notes: Fully human MAb from human gamma 2 producing XenoMouse (IgG2, kappa), hybridoma ATCC PTA-6703; Ha1-5.99.1 (subclone label) is treated as the same antibody; also called HA1-5.99.1; Ha1-5.99.1
B3: Ha1-4.117 (antibody, V domains shown)
VH: QVQLQESGPGLVKPSQTLSLTCTVSGGSISSGGYYWIWIRQHPGKGLEWIGYIYYNGNTYYNPSLKSRVTMSVDTSKNQFSLKLSSVTAADTAVYYCARDGITMIRGYYYGMDVWGQGTTVTVSS
VL: QLTQSPSSVSASVGDRVTITCRASRGISSWLAWYQQKPGKAPKLLIYTASSLQSGVPSRFSGSGSGTDFTLTISSLQPEDFATYYCQQAYSFPRTFGQGTKVEIKR
notes: Fully human MAb from human gamma 1 producing XenoMouse (IgG1, kappa), hybridoma ATCC PTA-6699; A fluorescein conjugate was used for IHC
B4: Ha1-4.37 (antibody, IgG1, V domains shown)
VH: PGALQESGPGLVRPSQTLSLTCTVSGGSISSGGTYYWIWIRQHPGKGLEWIGYIYYSGSTYYNPSLKSRVTISVDTSKNQFSLKLSSVTAADTAVYYCARDGITMVRGISGGMDVWGQGTTVTVSS
VL: ASVGDRVTITCRASQSISSHLNWYQQKPGKAPKLLIYAASSLQSGVPSRFSGSGSGTDFTLSISSLQPEDFATYFCQQSYSIPRTFGQGTKVEITR
notes: Fully human MAb from human gamma 1 producing XenoMouse (IgG1, kappa), hybridoma ATCC PTA-6702

In general, Kd refers to the constant that tells how readily two partners part at equilibrium. Read a high Kd as weaker binding.

The first experiment addresses T2, PSCA (prostate stem cell antigen), human (human, UniProt O43653 12-83).
T2 construct: Tested on cells: SW780, LAPC9AI, PC3-PSCA, B300.19-PSCA, prostate cancer xenograft cells and tumour tissue; also called PSCA v.1; PSCA variant 1
Put plainly: FACS titration on SW780 cells, anti-hIgG-PE, Prism sigmoidal dose-response fit.
Description: A panel of seven (7) anti-human PSCA antibodies was tested for their binding affinity to PSCA on SW780 cells, a human bladder cancer cell line expressing high level of PSCA. […] At the end of the incubation, cells were washed and incubated with anti-hIgG-PE detection antibody for 45 min at 4° C. After washing the unbound detection antibodies, the cells were analyzed by FACS; MFI values of each point were obtained using CellQuest Pro software and were used for affinity calculation using Graphpad Prism software: Sigmoidal Dose-Response (variable slope) equation (Table VII and Table VIII).
Consider B1, for which the affinity, expressed as Kd, was 6910 pM.

The molecule B2 gave a dissociation constant (Kd) of 280 pM.

Take B3: the equilibrium dissociation constant (Kd) was 320 pM.

Take B4: the Kd was determined as 230 pM. This Kd and that of the molecule before are within 1.5-fold of each other.

For another experiment, the target named is T1, murine PSCA. Put plainly: FACS on 293T cells expressing murine PSCA, anti-hIgG-PE.
Description: The cells were incubated with the respective antibodies using the following protocol. […] Specific recognition was determined using anti-hIgG-PE secondary detection antibody.
For B1, the binding result was “no binding”.

In the case of B3, the binding result is “binds”.
